# Where a chain is given by its changes, count along the chain named. Where two headings read alike, the source gives them in different places.
# T1: recombinant HKU1 spike protein (HCoV-HKU1, UniProt Q5MQD0 13-1276)
# T1 sequence: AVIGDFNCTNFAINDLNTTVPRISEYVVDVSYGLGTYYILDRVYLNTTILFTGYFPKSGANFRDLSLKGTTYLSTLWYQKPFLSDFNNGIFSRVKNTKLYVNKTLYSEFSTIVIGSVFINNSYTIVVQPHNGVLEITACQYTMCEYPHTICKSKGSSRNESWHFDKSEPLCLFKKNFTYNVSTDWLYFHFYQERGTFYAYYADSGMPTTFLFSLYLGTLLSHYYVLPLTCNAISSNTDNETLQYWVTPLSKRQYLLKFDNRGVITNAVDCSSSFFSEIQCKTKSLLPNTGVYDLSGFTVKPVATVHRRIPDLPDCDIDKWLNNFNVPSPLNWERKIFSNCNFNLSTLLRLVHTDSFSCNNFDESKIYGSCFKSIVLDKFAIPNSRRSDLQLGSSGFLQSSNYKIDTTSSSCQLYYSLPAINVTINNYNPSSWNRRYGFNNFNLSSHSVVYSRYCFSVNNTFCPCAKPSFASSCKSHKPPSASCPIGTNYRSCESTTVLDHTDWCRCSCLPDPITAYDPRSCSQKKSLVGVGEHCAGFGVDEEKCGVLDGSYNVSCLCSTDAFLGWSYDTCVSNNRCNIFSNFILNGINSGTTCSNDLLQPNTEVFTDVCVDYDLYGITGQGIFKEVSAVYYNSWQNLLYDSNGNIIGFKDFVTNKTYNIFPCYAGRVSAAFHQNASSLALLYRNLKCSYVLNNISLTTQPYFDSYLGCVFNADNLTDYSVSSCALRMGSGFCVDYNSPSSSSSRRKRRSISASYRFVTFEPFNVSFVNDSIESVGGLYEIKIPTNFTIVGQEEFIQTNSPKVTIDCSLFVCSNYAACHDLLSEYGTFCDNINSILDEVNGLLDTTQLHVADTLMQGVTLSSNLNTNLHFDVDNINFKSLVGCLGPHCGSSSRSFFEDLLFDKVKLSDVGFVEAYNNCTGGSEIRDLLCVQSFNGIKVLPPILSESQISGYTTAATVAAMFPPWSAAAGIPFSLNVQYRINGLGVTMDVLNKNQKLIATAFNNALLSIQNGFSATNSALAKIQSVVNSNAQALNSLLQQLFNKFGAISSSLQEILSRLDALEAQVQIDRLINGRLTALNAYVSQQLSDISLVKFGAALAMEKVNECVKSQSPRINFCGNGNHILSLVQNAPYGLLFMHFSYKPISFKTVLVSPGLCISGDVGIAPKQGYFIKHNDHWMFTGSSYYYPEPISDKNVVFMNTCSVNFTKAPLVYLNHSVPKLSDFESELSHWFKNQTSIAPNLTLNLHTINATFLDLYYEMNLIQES
# T2: recombinant MERS-COV spike protein (MERS-CoV, UniProt K9N5Q8 18-1291)
# T2 sequence: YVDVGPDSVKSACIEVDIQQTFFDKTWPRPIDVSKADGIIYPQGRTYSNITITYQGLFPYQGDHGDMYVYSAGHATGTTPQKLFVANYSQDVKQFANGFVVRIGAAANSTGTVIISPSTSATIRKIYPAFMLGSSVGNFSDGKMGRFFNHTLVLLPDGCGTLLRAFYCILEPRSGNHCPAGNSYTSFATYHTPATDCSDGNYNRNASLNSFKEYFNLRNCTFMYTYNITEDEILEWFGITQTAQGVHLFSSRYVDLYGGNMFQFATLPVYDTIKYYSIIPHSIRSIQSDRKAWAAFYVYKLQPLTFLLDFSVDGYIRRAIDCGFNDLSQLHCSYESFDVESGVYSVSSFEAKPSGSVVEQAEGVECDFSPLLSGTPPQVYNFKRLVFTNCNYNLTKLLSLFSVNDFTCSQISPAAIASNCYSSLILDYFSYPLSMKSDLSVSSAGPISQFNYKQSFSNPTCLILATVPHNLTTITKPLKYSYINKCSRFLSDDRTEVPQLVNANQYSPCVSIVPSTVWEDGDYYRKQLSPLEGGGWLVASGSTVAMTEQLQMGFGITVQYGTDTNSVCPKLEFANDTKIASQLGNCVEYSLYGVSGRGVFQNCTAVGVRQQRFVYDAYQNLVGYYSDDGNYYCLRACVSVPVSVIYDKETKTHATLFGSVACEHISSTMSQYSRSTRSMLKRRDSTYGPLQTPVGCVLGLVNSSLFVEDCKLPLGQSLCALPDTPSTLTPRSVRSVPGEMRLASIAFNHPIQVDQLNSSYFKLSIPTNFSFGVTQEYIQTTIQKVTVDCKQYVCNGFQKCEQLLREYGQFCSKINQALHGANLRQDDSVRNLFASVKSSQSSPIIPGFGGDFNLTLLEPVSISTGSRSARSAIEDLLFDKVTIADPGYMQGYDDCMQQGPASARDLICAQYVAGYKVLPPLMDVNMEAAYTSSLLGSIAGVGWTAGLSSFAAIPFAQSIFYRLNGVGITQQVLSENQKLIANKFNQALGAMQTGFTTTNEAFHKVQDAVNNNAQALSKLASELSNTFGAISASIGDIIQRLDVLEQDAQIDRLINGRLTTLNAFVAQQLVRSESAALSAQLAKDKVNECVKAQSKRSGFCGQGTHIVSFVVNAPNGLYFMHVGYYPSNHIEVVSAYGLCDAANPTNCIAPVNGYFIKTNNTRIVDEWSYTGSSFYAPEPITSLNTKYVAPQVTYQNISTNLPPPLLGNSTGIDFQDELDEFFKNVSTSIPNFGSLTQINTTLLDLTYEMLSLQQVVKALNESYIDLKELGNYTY
# B1: VHH R3_DC5 (VHH)
# VHH: QVQLQESGGGLVQAGDSLRLSCAASGRIFSTYTMGWFRQAPGMEREFVAAIRWSGSTVYYADSVKGRFTISRDNAKNTVYLQMNSLKPEDTAVYYCAAARVSKANYGTLWYRATGLYDYWGQGTQVTVSS
# B2: VHH R3_DC19 (VHH)
# VHH: QVQLQESGGGLVQPGDSLRLSCAVSGRPFSTYTMGWFRQAPGKEREFVAAMRWSGGTIYYADSVKGRFTISRDNDKNTVNLEMNSLKPEDTAVYYCAAAYVSKANYGSLWYRASGLYDYWGQGTQVTVSS
# B3: VHH R3_DC21 (VHH)
# VHH: B2 VHH with P14A, K65R
# B4: 3.83 (VHH)
# VHH: QVQLQESGGGLVQPGDSLRLSCVLSGGVFTSYAMGWFRQAPGKEREFLAAITFNSDATYYADSVKGRFTISRDNAKNTAYLQMNSLKPNDTAVYSCAAGGNHYNPQYYHDYDKYDHWGQGTQVTVSS
# How the values were obtained:
# [1] = molecular target: T3, SARS-COV-2 RBD (His-tagged, Sinobiologicals) (SARS-CoV-2 (Wuhan), UniProt P0DTC2 319-541); assay: ELISA, periplasmic extract 1/10, OD450 antigen/OD450 BSA
# [2] = molecular target: T1, recombinant HKU1 spike protein; assay: ELISA, periplasmic extract 1/10, heat map of binding (%)
# [3] = molecular target: T2, recombinant MERS-COV spike protein; assay: as above
# [4] = molecular target: T3, SARS-COV-2 RBD (His-tagged, …); assay: ELISA, periplasmic extract 1/10, OD450 antigen/OD450 BSA; remark: listed apart in the source
Binder,binding result [1],binding result [2],binding result [3],binding result [4]
B1,"no binding (tested: extract 1/10, concentration not given)","no binding (tested: extract 1/10, concentration not given)","no binding (tested: extract 1/10, concentration not given)",
B2,"no binding (tested: extract 1/10, concentration not given)","no binding (tested: extract 1/10, concentration not given)","no binding (tested: extract 1/10, concentration not given)",
B3,"no binding (tested: extract 1/10, concentration not given)","no binding (tested: extract 1/10, concentration not given)","no binding (tested: extract 1/10, concentration not given)",
B4,,,,binds

# Reference: US20250313611A1 (VIB VZW, published 2025)
